Data on one variant can be found in IntAct's records for PubMed 20598684.

B1: Abl interactor 1 (Homo sapiens), Q8IZP0 (parent)
chain: MAELQMLLEEEIPSGKRALIESYQNLTRVADYCENNYIQATDKRKALEETKAYTTQSLASVAYQINALANNVLQLLDIQASQLRRMESSINHISQTVDIHKEKVARREIGILTTNKNTSRTHKIIAPANMERPVRYIRKPIDYTVLDDVGHGVKWLKAKHGNNQPARTGTLSRTNPPTQKPPSPPMSGRGTLGRNTPYKTLEPVKPPTVPNDYMTSPARLGSQHSPGRTASLNQRPRTHSGSSGGSGSRENSGSSSIGIPIAVPTPSPPTIGPENISVPPPSGAPPAPPLAPLLPVSTVIAAPGSAPGSQYGTMTRQISRHNSTTSSTSSGGYRRTPSVTAQFSAQPHVNGGPLYSQNSISIAPPPPPMPQLTPQIPLTGFVARVQENIADSPTPPPPPPPDDIPMFDDSPPPPPPPPVDYEDEEAAVVQYNDPYADGDPAWAPKNYIEKVVAIYDYTKDKDDELSFMEGAIIYVIKKNDDGWYEGVCNRVTGLFPGNYVESIMHYTD

This test covers variants of B1. Particulars: with p85a_human PIK3R1, P27986.
Sequence of p85a_human PIK3R1, P27986 (P27986 whole entry): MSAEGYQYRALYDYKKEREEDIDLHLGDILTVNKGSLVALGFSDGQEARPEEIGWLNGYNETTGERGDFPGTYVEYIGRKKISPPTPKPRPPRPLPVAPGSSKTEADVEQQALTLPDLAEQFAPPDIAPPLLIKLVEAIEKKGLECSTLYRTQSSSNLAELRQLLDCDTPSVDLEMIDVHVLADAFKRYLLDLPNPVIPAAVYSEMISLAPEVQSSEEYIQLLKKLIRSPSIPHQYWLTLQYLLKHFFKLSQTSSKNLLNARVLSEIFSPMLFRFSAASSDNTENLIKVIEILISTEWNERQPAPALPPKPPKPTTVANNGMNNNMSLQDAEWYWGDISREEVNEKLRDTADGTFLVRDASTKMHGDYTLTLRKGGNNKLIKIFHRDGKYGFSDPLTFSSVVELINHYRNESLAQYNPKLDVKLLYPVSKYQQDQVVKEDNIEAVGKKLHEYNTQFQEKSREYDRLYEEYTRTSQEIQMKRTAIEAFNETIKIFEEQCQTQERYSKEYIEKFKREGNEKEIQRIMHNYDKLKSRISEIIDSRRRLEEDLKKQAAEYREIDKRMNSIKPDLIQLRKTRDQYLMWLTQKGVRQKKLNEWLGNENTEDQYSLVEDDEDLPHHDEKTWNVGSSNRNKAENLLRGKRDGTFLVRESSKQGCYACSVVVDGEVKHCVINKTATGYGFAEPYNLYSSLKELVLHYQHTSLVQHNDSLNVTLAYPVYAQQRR
Consider Y213F, for which the “effect of a mutation on the interaction” value is recorded as “disrupting interaction”.
